From paper doi:10.1101/2023.02.13.528223

Target: DNMT3A^R736S (human) (UniProt Q9Y6K1)
Assay: SEC + other: negative-stain EM

stoichiometry N: 2
Substance: DNMT3A^R736S (from UniProt Q9Y6K1 1-912) (enzyme)
